The source of these data is PMC2685030, “SmCL3, a Gastrodermal Cysteine Protease of the Human Blood Fluke Schistosoma mansoni” (PLoS Neglected Tropical Diseases, 2009).

The series deals with Cc1cc(=O)oc2cc(NC(=O)[C@H](CCCNC(=N)N)NC(=O)[C@H](Cc3ccccc3)NC(=O)OCc3ccccc3)ccc12. The series is described as follows: purified protein. To be noted: pH 6.0 citrate-phosphate, 25°C, 3 nM enzyme.

Turning to SmCL3 (Schistosoma mansoni), the Km was determined as 20.2 µM.
